Assay results from patent US20200317802A1 (Merck KGaA, published 2020).

T1: recombinant human ADAMTS5 (R&D Systems cat #2198-AD) (human, UniProt Q9UNA0 262-622, limits assumed)
T1 construct: bought protein
T1 sequence: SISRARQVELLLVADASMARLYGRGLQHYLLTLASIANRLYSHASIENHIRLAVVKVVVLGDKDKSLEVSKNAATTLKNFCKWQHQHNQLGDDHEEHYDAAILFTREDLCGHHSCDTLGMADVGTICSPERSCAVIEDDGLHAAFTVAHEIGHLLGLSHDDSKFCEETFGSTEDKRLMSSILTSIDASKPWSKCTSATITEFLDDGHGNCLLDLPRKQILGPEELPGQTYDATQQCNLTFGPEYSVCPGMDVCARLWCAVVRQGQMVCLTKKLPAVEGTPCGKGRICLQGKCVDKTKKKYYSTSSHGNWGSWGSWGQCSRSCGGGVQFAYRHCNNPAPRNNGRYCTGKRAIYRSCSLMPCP

T2: mouse recombinant ADAMTS5 (mouse, UniProt Q9R001 262-622, limits assumed)
T2 construct: in house, HEK293, His tag in the entry
T2 sequence: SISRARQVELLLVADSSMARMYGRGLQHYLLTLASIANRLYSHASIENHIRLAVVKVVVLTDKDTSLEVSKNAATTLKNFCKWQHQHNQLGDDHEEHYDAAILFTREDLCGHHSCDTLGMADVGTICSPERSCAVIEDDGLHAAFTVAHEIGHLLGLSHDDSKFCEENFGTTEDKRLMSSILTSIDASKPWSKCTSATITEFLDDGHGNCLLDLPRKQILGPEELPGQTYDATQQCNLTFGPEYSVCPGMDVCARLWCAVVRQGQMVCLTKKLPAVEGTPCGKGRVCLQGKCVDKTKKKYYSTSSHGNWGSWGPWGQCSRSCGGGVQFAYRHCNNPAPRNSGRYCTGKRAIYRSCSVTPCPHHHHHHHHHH

T3: rat recombinant ADAMTS5 (rat, UniProt Q9R001 262-618 (mouse entry))
T3 construct: in house, HEK293, His tag in the entry
T3 chain: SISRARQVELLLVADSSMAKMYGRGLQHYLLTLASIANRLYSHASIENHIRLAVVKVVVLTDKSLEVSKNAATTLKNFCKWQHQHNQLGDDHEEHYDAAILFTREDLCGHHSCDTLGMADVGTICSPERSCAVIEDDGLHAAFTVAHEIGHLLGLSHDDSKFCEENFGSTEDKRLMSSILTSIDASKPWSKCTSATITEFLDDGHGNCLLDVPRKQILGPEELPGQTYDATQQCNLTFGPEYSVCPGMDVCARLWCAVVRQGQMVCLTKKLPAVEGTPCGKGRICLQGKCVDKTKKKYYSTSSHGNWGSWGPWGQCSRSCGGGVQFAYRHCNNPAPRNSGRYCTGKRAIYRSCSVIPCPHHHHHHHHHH

B1: Nanobody 2A12 (VHH)
VHH: EVQLVESGGGLVQAGGSLRLSCAASGRTFSSYAMGWFRQAPGKERDFVAGISRSAGRTYYVDSVKGRFTISRDSAKNTVYLQMNRLKPEDTAVYYCAADLDPNRIFSRDEAAYWGQGTLVTVSS
notes: tagged as tested (anti-Flag detection, IMAC); also called 02A12
B2: Nanobody 2F03 (VHH)
VHH: EVQLVESGGGLVQAGGSLRLSCAASGRTVSSYAMGWFRLAPGKEREFVAGISRSAERTYYVDSLKGRFTISRDSAKNTVYLHMNRLKPEDTAVYYCAADLDPNRIFSREEYAYWGQGTLVTVSS
notes: tagged as tested (anti-Flag detection, IMAC); also called 02F03; 2F3

How the values were obtained:
[1] = target: T1, recombinant human ADAMTS5 (R&D Systems …); assay: SPR off-rate, Biacore T100, ADAMTS5 immobilised, experiment 2
Procedure: (§1) Species cross-reactivity was initially evaluated via SPR-based off-rate analysis on a Biacore T100 instrument. Nanobodies were tested for binding to human, cynomolgus monkey (“cyno”), guinea pig, mouse, and bovine ADAMTS5. To this end, recombinant ADAMTS5 was immobilized onto a CM5 chip via amine coupling using EDC and NHS. Purified Nanobodies were injected for 2 minutes at a concentration of 100 nM and allowed to dissociate for 15 min at a flow rate of 45 ul/min. Off-rate for each individual Nanobody was determined by fitting a 1:1 interaction model (Langmuir model) onto the individual dissociation curves using the BIA Evaluation software. As a reference, off-rates on human ADAMTS5 were determined in each experiment.

[2] = target: T2, mouse recombinant ADAMTS5; assay: as above
Procedure: as §1

[3] = target: T1, recombinant human ADAMTS5 (R&D Systems …); assay: SPR kinetics, Biacore T100, ADAMTS5 immobilised
Procedure: (§2) For referencing, affinity for human ADAMTS5 was also determined. Thereto, rat and human ADAMTS5 were immobilized onto a CM5 chip via amine coupling, using EDC and NHS chemistry. Purified Nanobodies were injected for 2 minutes at different concentrations (between 1 and 1000 nM) and allowed to dissociate for 25 min at a flow rate of 45 μl/min. The kinetic constants were calculated from the sensorgrams using the BIAEvaluation software (1:1 interaction).

rat recombinant ADAMTS5 = target: T3, rat recombinant ADAMTS5; assay: SPR kinetics, Biacore T100, ADAMTS5 immobilised
Procedure: as §2

[4] = target: T1, recombinant human ADAMTS5 (R&D Systems …); assay: binding ELISA, periplasmic extract on coated human ADAMTS5
Procedure: In a first step, periplasmic extracts were tested for binding to recombinant human ADAMTS5 by binding ELISA. In brief, recombinant human ADAMTS5 (R&D Systems, Minneapolis, US; cat #2198-AD) at a concentration of 1 μg/ml was coated on 384-well MaxiSorp plates (Nunc, Wiesbaden, Germany). Wells were blocked with a casein solution (1%). After addition of a 10-fold dilution of the periplasmic extracts, Nanobody binding was detected using a mouse anti-Flag-HRP conjugate (Sigma, St. Louis, US) and a subsequent enzymatic reaction in the presence of the substrate esTMB (3,3′,5,5′-tetramentylbenzidine) (SDT, Brussels, Belgium). Clones showing ELISA signals higher than the sum of the average signal of the irrelevant Nanobody controls and 3 times the standard deviation of the irrelevant Nanobody controls were considered to encode positive human ADAMTS5 binding Nanobodies.

[5] = target: T1, recombinant human ADAMTS5 (R&D Systems …); assay: cell-based or functional assay
[6] = target: T1, recombinant human ADAMTS5 (R&D Systems …); assay: cell-based or functional assay; remark: listed apart in the source
[7] = target: T1, recombinant human ADAMTS5 (R&D Systems …); assay: cell-based or functional assay; remark: listed apart in the source
[8] = target: T1, recombinant human ADAMTS5 (R&D Systems …); assay: SPR off-rate, Biacore T100, ADAMTS5 immobilised, experiment 3
Procedure: as §1

| Binder | koff [1] [s⁻¹] | koff [2] [s⁻¹] | Kd [3] [nM] | Kd (rat recombinant ADAMTS5) [nM] | binding ELISA (OD 450 nm) [4] [OD 450 nm] | AlphaLISA IC50, - HSA [5] [nM] | FRET assay % inh, periplasmic extract [6] [%] | FRET assay vi (U/min), periplasmic extract [6] [U/min] | Human AlphaLISA % inhibition [7] [%] | Human AlphaLISA IC50 [7] [nM] | koff [8] [s⁻¹] |
| --- | --- | --- | --- | --- | --- | --- | --- | --- | --- | --- | --- |
| B1 | 0.00023 | 0.00044 | 1.9 | 1 | 1.75 | 0.15 | 104 | -1 | 100 | 0.15 | 0.00031 |
| B2 | 6.5e-05 | 0.00029 | 1.6 | 0.7 | 1.84 | 0.075 | 103 | -1 | 100 | 0.075 | 9.7e-05 |
